Data set [1] has as its target T1, LSALT peptide (LSALTPSPSWLKYKAL).
T1 chain: LSALTPSPSWLKYKAL

In another data set the target is T2, human DPEP2 (human, UniProt Q9H4A9 33-463).
T2 construct: whole, on cells; Transiently expressed on Cos-1 cells
Put plainly: immunofluorescence microscopy of Alexa-488 peptide on transfected Cos-1 cells. The protocol: (§1) Cos-1 cells were transiently transfected with either 3 μg of human DPEP-1, DPEP2, or DPEP3 gene using lipofectamine 2000 (Invitrogen) reagent in OptiMEM medium. 24 hours after transfection, DPEP-1, DPEP2, or DPEP3 expressing cells were re-seeded on collagen coated (neutralized) wells in 24 well plates and allowed to grow for 24 hours at 37° C. 24 hours after seeding, media was removed and cells were washed with PBS. Cells were blocked with FBS/NBSA/Tween in PBS for 30 minutes on ice. Cells were then washed with PBS and incubated with LSALT or GFE-1, conjugated with Alexa-488 (green). After incubation, cells were washed with PBS and stained with DAPI for 5 minutes on ice. Cells were then washed with PBS and fixed using 4% paraformaldehyde and immunofluorescence microscopy was performed to assess binding. Representative photomicrographs are shown for each experimental condition (n=3) in FIG. 6A. Proteins from DPEP-1, DPEP2 and DPEP3 transfected cells were isolated after 48 hours using octyl-glucoside/RIPA lysis buffer and western blot analysis was performed to assess DPEP-1, DPEP2 and DPEP3 protein expression using specific antibodies; DPEP-1 antibody (Sigma), DPEP2 (Abcam) and DPEP3 (Santacruz). Blots were stripped and reprobed with an anti-β-actin.

The next data set has as its target T3, human DPEP3 (human, UniProt Q9H4B8 36-463).
T3 construct: whole, on cells; Transiently expressed on Cos-1 cells
T3 sequence (looked up): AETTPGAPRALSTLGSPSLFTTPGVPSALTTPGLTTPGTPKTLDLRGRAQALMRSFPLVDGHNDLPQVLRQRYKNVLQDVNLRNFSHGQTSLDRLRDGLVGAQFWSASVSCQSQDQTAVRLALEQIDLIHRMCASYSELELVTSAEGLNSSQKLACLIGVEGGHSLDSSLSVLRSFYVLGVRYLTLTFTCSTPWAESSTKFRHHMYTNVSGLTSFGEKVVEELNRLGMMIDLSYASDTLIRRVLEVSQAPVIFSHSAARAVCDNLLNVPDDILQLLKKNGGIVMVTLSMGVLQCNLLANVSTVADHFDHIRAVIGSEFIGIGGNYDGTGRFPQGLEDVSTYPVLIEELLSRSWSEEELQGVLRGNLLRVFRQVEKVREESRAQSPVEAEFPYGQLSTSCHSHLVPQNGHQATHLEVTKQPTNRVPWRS
The data set is described as above. The protocol:
as §1

The target in data set [2] is T4, rat membrane dipeptidase (DPEP-1) (rat, UniProt P31430 17-384).
T4 construct: whole, on cells; Transiently expressed on Cos-1 or Cos-7 cells; also called renal rat membrane dipeptidase; rat DPEP-1
T4 sequence (P31430 17-384): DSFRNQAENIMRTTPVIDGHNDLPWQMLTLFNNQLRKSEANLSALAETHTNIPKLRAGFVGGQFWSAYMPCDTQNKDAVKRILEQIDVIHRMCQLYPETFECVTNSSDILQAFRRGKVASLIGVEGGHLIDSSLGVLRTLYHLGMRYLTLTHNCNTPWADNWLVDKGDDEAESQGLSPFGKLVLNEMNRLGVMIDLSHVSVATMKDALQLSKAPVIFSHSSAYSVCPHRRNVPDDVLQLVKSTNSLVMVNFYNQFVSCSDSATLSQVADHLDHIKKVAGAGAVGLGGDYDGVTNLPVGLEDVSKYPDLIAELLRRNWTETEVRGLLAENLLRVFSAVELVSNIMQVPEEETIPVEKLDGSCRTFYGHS
Put plainly: immunofluorescence microscopy of Alexa-568 peptide on Cos-7 cells transfected with rat DPEP-1. The protocol: Cos-7 cells were transiently transfected with 5 μg of renal rat membrane dipeptidase (DPEP-1) plasmid using lipofectamine 2000 (Invitrogen) reagent. 48 hours after transfection, media was removed and cells were washed with PBS. Cells were incubated with LSALT conjugated with Alexa-488 (Green), GFE-1 peptide conjugated with Alexa-568 (Red) or control peptide conjugated with Alexa-488 (Green) on ice for 30 minutes. Cells were washed and fixed using 4% paraformaldehyde and immunofluorescence microscopy was performed to assess binding. Shown are representative photomicrographs of each experimental condition (n=2).

Data set [3] concerns the target T5, human membrane dipeptidase (DPEP-1) (human, UniProt P16444 17-385).
T5 construct: whole, on cells; The background section describes DPEP-1 as a disulfide-linked homodimer; also called renal dipeptidase; dehydropeptidase-1
T5 sequence (looked up): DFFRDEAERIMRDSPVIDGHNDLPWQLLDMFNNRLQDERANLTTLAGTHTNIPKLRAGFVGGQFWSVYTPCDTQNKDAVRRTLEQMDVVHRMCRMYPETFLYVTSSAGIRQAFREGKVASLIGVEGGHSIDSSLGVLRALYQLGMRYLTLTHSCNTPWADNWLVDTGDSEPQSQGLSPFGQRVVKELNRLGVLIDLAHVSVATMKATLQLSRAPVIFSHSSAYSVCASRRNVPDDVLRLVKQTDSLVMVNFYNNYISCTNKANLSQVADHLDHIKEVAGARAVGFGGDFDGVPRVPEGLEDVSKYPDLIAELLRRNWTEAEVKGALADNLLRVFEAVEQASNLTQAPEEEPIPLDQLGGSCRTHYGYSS
Put plainly: immunofluorescence microscopy of Alexa-488 peptide on Cos-1 cells transfected with human DPEP-1.

The target of data set [4] is T4, rat membrane dipeptidase (DPEP-1). Briefly: immunofluorescence microscopy of Alexa-488 peptide on Cos-1 cells transfected with rat DPEP-1. The protocol: Cos-1 cells were transiently transfected with either 3 or 5 μg of membrane dipeptidase (DPEP-1) cDNA corresponding to the rat (Shown in FIG. 5A) or human DPEP-1 (Shown in FIG. 5B) gene using lipofectamine 2000 (Invitrogen) reagent in OptiMEM medium. 24 hours after transfection, DPEP-1 expressing cells were re-seeded on collagen coated (neutralized) wells in 24 well plates and allowed to grow for 24 hours at 37° C. 24 hours after seeding, media was removed and cells were washed with PBS. Cells were blocked with FBS/NBSA/Tween in PBS for 30 minutes on ice. Cells were then washed with PBS and incubated with Alexa-488 (green) conjugated LSALT, GFE-1, control peptide or DPEP-1 antibody ( 1/100) (Sigma) on ice for 30 minutes. […] After incubation, cells were washed with PBS and treated with 10 mg/ml biotin transfer peptide (LSALT, GFE-1 or Control Peptide (KGAL)] for 10 minutes. Cells were then washed with PBS and biotin transfer was enabled by UV activation of the aryl azide groups for 15 minutes at 363 nm. Residual fluid was removed and monolayers were lysed either with octyl-glucoside/RIPA or 8M urea. Isolated supernatants were rotated with 50 μl of neutr-avidin agarose beads at 4° C. for 24 hours. Beads were washed with corresponding buffers, boiled in Laemmli buffer and analyzed by western blot using a DPEP-1 specific antibody (Proteintech).

Ends that are not written are not given here.

T2 sequence (Q9H4A9 33-463): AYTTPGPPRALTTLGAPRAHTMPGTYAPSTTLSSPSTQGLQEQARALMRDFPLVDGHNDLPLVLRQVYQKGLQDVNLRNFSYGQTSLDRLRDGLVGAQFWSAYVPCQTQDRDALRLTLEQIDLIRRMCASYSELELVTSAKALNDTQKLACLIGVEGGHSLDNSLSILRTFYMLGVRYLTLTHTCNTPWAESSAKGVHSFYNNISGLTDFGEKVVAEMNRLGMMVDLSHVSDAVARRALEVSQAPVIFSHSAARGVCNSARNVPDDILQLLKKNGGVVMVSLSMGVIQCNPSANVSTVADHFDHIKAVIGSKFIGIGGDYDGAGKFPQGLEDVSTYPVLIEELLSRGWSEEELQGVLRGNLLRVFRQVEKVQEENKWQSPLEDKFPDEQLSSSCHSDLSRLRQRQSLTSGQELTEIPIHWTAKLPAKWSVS

B1: human membrane dipeptidase (DPEP-1) (protein)
chain: DFFRDEAERIMRDSPVIDGHNDLPWQLLDMFNNRLQDERANLTTLAGTHTNIPKLRAGFVGGQFWSVYTPCDTQNKDAVRRTLEQMDVVHRMCRMYPETFLYVTSSAGIRQAFREGKVASLIGVEGGHSIDSSLGVLRALYQLGMRYLTLTHSCNTPWADNWLVDTGDSEPQSQGLSPFGQRVVKELNRLGVLIDLAHVSVATMKATLQLSRAPVIFSHSSAYSVCASRRNVPDDVLRLVKQTDSLVMVNFYNNYISCTNKANLSQVADHLDHIKEVAGARAVGFGGDFDGVPRVPEGLEDVSKYPDLIAELLRRNWTEAEVKGALADNLLRVFEAVEQASNLTQAPEEEPIPLDQLGGSCRTHYGYSS
For B1, the “membrane dipeptidase (DPEP-1) enzyme activity (Gly-D-Phe substrate, fluorimetric detection of D-Phe)” value in data set [1] was “LSALT does not Inhibit Membrane Dipeptidase (DPEP-1) Enzyme Activity”.

B2: GFE-1 peptide (CGFECVRQCPERC) (peptide)
peptide: CGFECVRQCPERC
modifications: cysteine pairing not given here; also: conjugated with Alexa-488 or Alexa-568, attachment site not given here
In the case of B2, the binding result in the data set with human DPEP2 is “no binding”; with human DPEP3, “no binding”; in data set [2], “binds”.

B3: LSALT peptide (LSALTPSPSWLKYKAL) (peptide)
peptide: LSALTPSPSWLKYKAL
modifications: also: Alexa-488 conjugate in binding assays, site not given here
notes: Phage-display derived peptide; also called Metablok
Turning to B3, the binding result in data set [3] is on record as “binds”; with human DPEP2 it was “no binding”; with human DPEP3 it was “no binding”; in data set [4], “binds”.

The values above are taken from US20200078442A1 (ARCH BIOPARTNERS, published 2020).
